Data reported in IntAct's records for PubMed 17641687.

B1: Kinesin-like protein KIF16B (Homo sapiens), Q96L93 (parent)
chain: MASVKVAVRVRPMNRREKDLEAKFIIQMEKSKTTITNLKIPEGGTGDSGRERTKTFTYDFSFYSADTKSPDYVSQEMVFKTLGTDVVKSAFEGYNACVFAYGQTGSGKSYTMMGNSGDSGLIPRICEGLFSRINETTRWDEASFRTEVSYLEIYNERVRDLLRRKSSKTFNLRVREHPKEGPYVEDLSKHLVQNYGDVEELMDAGNINRTTAATGMNDVSSRSHAIFTIKFTQAKFDSEMPCETVSKIHLVDLAGSERADATGATGVRLKEGGNINKSLVTLGNVISALADLSQDAANTLAKKKQVFVPYRDSVLTWLLKDSLGGNSKTIMIATISPADVNYGETLSTLRYANRAKNIINKPTINEDANVKLIRELRAEIARLKTLLAQGNQIALLDSPTALSMEEKLQQNEARVQELTKEWTNKWNETQNILKEQTLALRKEGIGVVLDSELPHLIGIDDDLLSTGIILYHLKEGQTYVGRDDASTEQDIVLHGLDLESEHCIFENIGGTVTLIPLSGSQCSVNGVQIVEATHLNQGAVILLGRTNMFRFNHPKEAAKLREKRKSGLLSSFSLSMTDLSKSRENLSAVMLYNPGLEFERQQREELEKLESKRKLIEEMEEKQKSDKAELERMQQEVETQRKETEIVQLQIRKQEESLKRRSFHIENKLKDLLAEKEKFEEERLREQQEIELQKKRQEEETFLRVQEELQRLKELNNNEKAEKFQIFQELDQLQKEKDEQYAKLELEKKRLEEQEKEQVMLVAHLEEQLREKQEMIQLLRRGEVQWVEEEKRDLEGIRESLLRVKEARAGGDEDGEELEKAQLRFFEFKRRQLVKLVNLEKDLVQQKDILKKEVQEEQEILECLKCEHDKESRLLEKHDESVTDVTEVPQDFEKIKPVEYRLQYKERQLQYLLQNHLPTLLEEKQRAFEILDRGPLSLDNTLYQVEKEMEEKEEQLAQYQANANQLQKLQATFEFTANIARQEEKVRKKEKEILESREKQQREALERALARLERRHSALQRHSTLGMEIEEQRQKLASLNSGSREQSGLQASLEAEQEALEKDQERLEYEIQQLKQKIYEVDGVQKDHHGTLEGKVASSSLPVSAEKSHLVPLMDARINAYIEEEVQRRLQDLHRVISEGCSTSADTMKDNEKLHNGTIQRKLKYERMVSRSLGANPDDLKDPIKISIPRYVLCGQGKDAHFEFEVKITVLDETWTVFRRYSRFREMHKTLKLKYAELAALEFPPKKLFGNKDERVIAERRSHLEKYLRDFFSVMLQSATSPLHINKVGLTLSKHTICEFSPFFKKGVFDYSSHGTG

Variants of: B1
Settings: with eea1_human EEA1, Q15075
Sequence of eea1_human EEA1, Q15075 (Q15075 whole entry): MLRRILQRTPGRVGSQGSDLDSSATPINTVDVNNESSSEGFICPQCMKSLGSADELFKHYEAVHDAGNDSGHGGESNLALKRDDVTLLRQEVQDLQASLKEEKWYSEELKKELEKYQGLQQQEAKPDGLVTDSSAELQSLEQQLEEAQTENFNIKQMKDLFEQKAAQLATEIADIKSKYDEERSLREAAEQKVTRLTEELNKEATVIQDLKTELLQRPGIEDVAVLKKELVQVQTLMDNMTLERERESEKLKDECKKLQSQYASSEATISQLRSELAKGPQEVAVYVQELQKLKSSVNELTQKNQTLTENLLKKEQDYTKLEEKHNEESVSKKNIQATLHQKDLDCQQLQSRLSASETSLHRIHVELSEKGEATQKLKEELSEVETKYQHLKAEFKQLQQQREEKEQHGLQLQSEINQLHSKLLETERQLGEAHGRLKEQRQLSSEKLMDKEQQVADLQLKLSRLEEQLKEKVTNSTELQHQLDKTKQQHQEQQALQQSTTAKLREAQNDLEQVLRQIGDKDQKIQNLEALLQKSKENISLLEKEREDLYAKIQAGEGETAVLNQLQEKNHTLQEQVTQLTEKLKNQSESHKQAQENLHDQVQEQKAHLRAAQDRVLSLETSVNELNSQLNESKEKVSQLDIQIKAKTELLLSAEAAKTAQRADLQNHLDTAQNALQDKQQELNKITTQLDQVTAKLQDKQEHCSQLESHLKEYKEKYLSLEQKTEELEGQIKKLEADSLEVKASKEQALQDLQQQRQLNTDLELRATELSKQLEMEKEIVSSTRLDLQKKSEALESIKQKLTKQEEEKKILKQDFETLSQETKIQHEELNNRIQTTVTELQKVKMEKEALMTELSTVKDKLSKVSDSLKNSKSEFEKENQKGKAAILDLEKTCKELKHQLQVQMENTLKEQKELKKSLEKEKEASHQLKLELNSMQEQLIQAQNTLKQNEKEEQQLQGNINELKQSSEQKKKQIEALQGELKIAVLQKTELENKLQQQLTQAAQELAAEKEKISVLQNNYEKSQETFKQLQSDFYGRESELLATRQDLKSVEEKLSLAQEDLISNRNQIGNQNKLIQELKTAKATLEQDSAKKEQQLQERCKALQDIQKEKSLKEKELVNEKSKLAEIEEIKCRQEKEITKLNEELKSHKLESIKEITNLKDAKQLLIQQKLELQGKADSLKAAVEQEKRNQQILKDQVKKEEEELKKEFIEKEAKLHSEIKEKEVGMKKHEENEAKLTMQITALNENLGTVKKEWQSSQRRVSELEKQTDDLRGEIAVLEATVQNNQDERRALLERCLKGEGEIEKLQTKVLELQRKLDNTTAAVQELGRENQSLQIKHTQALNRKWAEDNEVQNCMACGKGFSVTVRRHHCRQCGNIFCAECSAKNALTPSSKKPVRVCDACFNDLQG

Row | Variant | effect of a mutation on the interaction
1 | L1248A | disrupting interaction
2 | F1249A | disrupting interaction
